Test [1] has as its target T1, human CCR8 with a SNAP-tag at the N-terminus (human, UniProt P51685 1-355, SNAP-tag labelled covalently with Lumi4-Terbium).
T1 construct: also called hCCR8 SNAP-tag; CCR8 SNAP-tag
In words: HTRF Tag-lite, inhibition of hCCL1-AF647 binding to SNAP-hCCR8 on HEK-293 cells.

Test [2] addresses T2, human CCR8 (human, UniProt P51685 1-355). In words: cell-based or functional assay.
Test [3] concerns the target T2, human CCR8. In words: flow cytometry, human activated T cells (endogenous CCR8). The procedure:
(§1) In human activated T cells model, prior to mAb incubation, cells were first incubated with 200 nM of hCCL1 (R&D Systems, Minneapolis, MN, USA) or buffer PBS (Invitrogen by Thermofisher Scientific, Illkirch-Graffenstaden, France) supplemented by 2% Fetal Bovine Serum (Invitrogen by Thermofisher Scientific, Illkirch-Graffenstaden, France) and 2 mM EDTA (Invitrogen by Thermofisher Scientific, Illkirch-Graffenstaden, France) during 1 hour at 4° C. To determine EC50 value, 8 concentrations of anti-CCR8 mAb were tested. Unbound antibodies were washed away with PBS (Invitrogen by Thermofisher Scientific, Illkirch-Graffenstaden, France) supplemented by 2% Fetal Bovine Serum (Invitrogen by Thermofisher Scientific, Illkirch-Graffenstaden, France) and 2 mM EDTA (Invitrogen by Thermofisher Scientific, Illkirch-Graffenstaden, France). Subsequently, cells are centrifuged (5 min at 400 g) and bound antibody is detected with F(ab′)2-Goat anti-Mouse IgG (H+L) Cross-Adsorbed Secondary Antibody, Alexa Fluor 488 (dilution 1/500) (Invitrogen by Thermofisher Scientific, Illkirch-Graffenstaden, France) or with F(ab′)₂-Goat anti-Human IgG Fc Secondary Antibody, PE (Invitrogen by Thermofisher Scientific, Illkirch-Graffenstaden, France) (dilution 1/1000) at 4° C. for 30 min. Detection reagent is washed away and cells are centrifuged (5 min at 400 g) and resuspended in 30 μL PBS. Bound detection antibody is quantified on a MacsQuant16 (Miltenyi, Gladbach, Germany) (B1 or B2 channel, 5000 events per acquisition). During the experiment, the respective isotype mAb controls (mouse IgG1, mouse IgG2a, mouse IgG2b, mouse IgG3 or human IgG1) (Biolegend, Amsterdam, The Netherlands) are included to exclude any unspecific binding events. EC50 values were determined via nonlinear fit “log (agonist) vs.response—Variable slope (four parameters)” function of Graphpad prism. EC50 values were not constantly determined in the same experiments.
Binding characteristics of anti-CCR8 mAb cellular reactivity was further investigated by testing their binding to activated T cells.

The target in test [4] is T2, human CCR8. In words: flow cytometry, HUT78 cells (endogenous CCR8). On the procedure:
as §1
Anti-CCR8 mAb cellular reactivity was also evaluated on native human CCR8 from HUT78 cell line by flow cytometry. In Table 4.3, Mean Fluorescence Intensity (Fold change to isotype control), the percentage of labelled cells and EC50 in nM of some anti-CCR8 antibodies are presented.

Test [5] concerns the target T2, human CCR8. Briefly: flow cytometry, human activated T cells pre-saturated with 200 nM hCCL1. On the procedure: Unbound antibodies were washed away with PBS (Invitrogen by Thermofisher Scientific, Illkirch-Graffenstaden, France) supplemented by 2% Fetal Bovine Serum (Invitrogen by Thermofisher Scientific, Illkirch-Graffenstaden, France) and 2 mM EDTA (Invitrogen by Thermofisher Scientific, Illkirch-Graffenstaden, France). Subsequently, cells are centrifuged (5 min at 400 g) and bound antibody is detected with F(ab′)2-Goat anti-Mouse IgG (H+L) Cross-Adsorbed Secondary Antibody, Alexa Fluor 488 (dilution 1/500) (Invitrogen by Thermofisher Scientific, Illkirch-Graffenstaden, France) or with F(ab′)₂-Goat anti-Human IgG Fc Secondary Antibody, PE (Invitrogen by Thermofisher Scientific, Illkirch-Graffenstaden, France) (dilution 1/1000) at 4° C. for 30 min. Detection reagent is washed away and cells are centrifuged (5 min at 400 g) and resuspended in 30 μL PBS. Bound detection antibody is quantified on a MacsQuant16 (Miltenyi, Gladbach, Germany) (B1 or B2 channel, 5000 events per acquisition). During the experiment, the respective isotype mAb controls (mouse IgG1, mouse IgG2a, mouse IgG2b, mouse IgG3 or human IgG1) (Biolegend, Amsterdam, The Netherlands) are included to exclude any unspecific binding events. EC50 values were determined via nonlinear fit “log (agonist) vs.response—Variable slope (four parameters)” function of Graphpad prism. EC50 values were not constantly determined in the same experiments.
Binding characteristics of anti-CCR8 mAb cellular reactivity was further investigated by testing their binding to activated T cells. […] For some anti-CCR8 antibodies, their binding on hCCR8 from human activated T cells was tested after a pre-saturation with 200 nM of hCCL1.

The target of test [6] is T2, human CCR8. Briefly: cell-based or functional assay. This is another data set of the same source.
Test [7] deals with T2, human CCR8. Briefly: cell-based or functional assay. This is another data set of the same source.

Where “and” joins values, the source holds several entries; their conditions need not be identical. Equal values may be shown once.

B1: anti-CCR8 mAb 1-25 (antibody, human IgG1, kappa, V domains shown)
VH: QVQLVESGGGVVQPGRSLRLSCAASGFTFSNYRMHWVRQAPGKGLEWIAVIKVKSDNYGANYADSVKGRFTISRDNSKNTLYLQMNSLRAEDTAVYYCSSPTYPGSSGFAYWGQGTLVTVSS
VL: DIQMTQSPSSLSASVGDRVTITCRASQDISNYLNWYQQKPDGTVKLLIYYTSRLHTGVPSRFSGSGSGTDYTLTISNLQQEDIATYFCQQGNKFPPTFGGGTKVEINR
notes: Humanized mAb, human IgG1 / kappa
Turning to B1, the IC50 in test [1] stood at 0.02 µg/mL. Besides, in test [1], the Ki is 0.01 µg/mL and 0.07 nM. Also, the “IC50 of CCL1-induced hCCR8 Gi2 signaling (BRET, HEK-293)” value (from here on “IC50 … (BRET, HEK-293)”) with human CCR8 [2] is 0.02 µg/mL and 0.134 nM. Moreover, the “% of labelled cells” value with human CCR8 [3] was 63%; with human CCR8 [4], 93%; in the test with human CCR8 [5] it was 54%.

B2: anti-CCR8 mAb 1-20 (antibody, human IgG1, kappa)
heavy: not shown
light: DIVMTQAAPSLSVTPGESASISCTSSKSLLHSNGNTYLYWFLQKPGQSPQLLIYRMSNLASGVPDRFSGSGSGTAFTLKISRVEAEDVGVYYCMQHREYPFTFGSGTKLEIKRTVAAPSVFIFPPSDEQLKSGTASVVCLLNNFYPREAKVQWKVDNALQSGNSQESVTEQDSKDSTYSLSSTLTLSKADYEKHKVYACEVTHQGLSSPVTKSFNRGEC
notes: as for B1
In test [1], B2 returned an IC50 of 0.09 µg/mL and a Ki of 0.05 µg/mL. Also, the “IC50 … (BRET, HEK-293)” value with human CCR8 [2] is 0.029 µg/mL and 0.194 nM. Also, in the test with human CCR8 [6], the “extrapolated top plateau of hCCL1 curve with 5 µg/mL mAb, protocol #3” value was 517000 % of hCCL1 (100 nM). Further, in the test with human CCR8 [7], the “residual hCCL1 (100 nM) Gi2 response, protocol #2, mAb 0.08 µg/mL” value worked out at 62%; the “residual hCCL1 (100 nM) Gi2 response, protocol #2, mAb 0.4 µg/mL” value turned out to be 38%; the “residual hCCL1 (100 nM) Gi2 response, protocol #2, mAb 10 µg/mL” value was found to be 30%; the “residual hCCL1 (100 nM) Gi2 response, protocol #3, mAb 0.05 µg/mL” value came out at 94%. Further, in the test with human CCR8 [7], the “residual hCCL1 (100 nM) Gi2 response, protocol #3, mAb 0.5 µg/mL” value stood at 63% and the “residual hCCL1 (100 nM) Gi2 response, protocol #3, mAb 5 µg/mL” value was 39%. Further, in the test with human CCR8 [3], the “% of labelled cells” value was 79%. Besides, in the test with human CCR8 [4], the “% of labelled cells” value came out at 23%. The “% of labelled cells” value with human CCR8 [5] was 64%.

B3: anti-CCR8 mAb 1-22 (antibody, human IgG1, kappa, V domains shown)
VH: EVQLLESGGGLVQPGGSLRLSCAASGFTFNAYAMNWVRQAPGKGLEWVARIRSKSNDYATYYGDSVKGRFTISRDNSKNTLYLQMNSLRAEDTAVYYCVRGREAYYRYDGGYYAMDVWGQGTTVTVSS
VL: DIVMTQSPLSLPVTPGEPASISCRSSKSLLHSNGNTYLYWFLQKPGQSPQLLIYRVSNLASGVPDRFSGSGSGTDFTLKISRVEAEDVGVYYCMQHREYPFTFGQGTKLEIKR
notes: as for B1
Consider B3, for which, in test [1], the IC50 was 0.15 µg/mL; the Ki is 0.08 µg/mL and 0.5 nM. Also, the “IC50 … (BRET, HEK-293)” value with human CCR8 [2] was 0.068 µg/mL and 0.452 nM. In addition, the “extrapolated top plateau of hCCL1 curve with 5 µg/mL mAb, protocol #3” value in the test with human CCR8 [6] was 76400 % of hCCL1 (100 nM). In addition, in the test with human CCR8 [7], the “residual hCCL1 (100 nM) Gi2 response, protocol #2, mAb 0.08 µg/mL” value worked out at 94%; the “residual hCCL1 (100 nM) Gi2 response, protocol #2, mAb 0.4 µg/mL” value worked out at 77%; the “residual hCCL1 (100 nM) Gi2 response, protocol #2, mAb 10 µg/mL” value is 31%; the “residual hCCL1 (100 nM) Gi2 response, protocol #3, mAb 0.05 µg/mL” value is 110%. Besides, in the test with human CCR8 [7], the “residual hCCL1 (100 nM) Gi2 response, protocol #3, mAb 0.5 µg/mL” value amounted to 76% and the “residual hCCL1 (100 nM) Gi2 response, protocol #3, mAb 5 µg/mL” value was 33%. Further, the “% of labelled cells” value in the test with human CCR8 [3] is 92%. Also, the “% of labelled cells” value with human CCR8 [4] amounted to 97%. The “% of labelled cells” value in the test with human CCR8 [5] worked out at 92%.

(Values after patent publication US20260132208A1 (DOMAIN THERAPEUTICS, published 2026).)
